Measured values reported in US10704056B2, “Constitutively active ABA receptor mutants” (The Regents of the University of California, priority 2011, dated 2020).
Positions count from the first letter of the chain named. Names may count otherwise.

B1: PYL9^CA4: PYL9 mutant (V85F, Y160I, F161V) (protein)
chain: HHHHHHMMDGVEGGTAMYGGLETVQYVRTHHQHLCRENQCTSALVKHIKAPLHLVWSLVRRFDQPQKYKPFVSRCTVIGDPEIGSLREVNFKSGLPATTSTERLELLDDEEHILGIKIIGGDHRLKNYSSILTVHPEIIEGRAGTMVIESFVVDVPQGNTKDETCIVVEALIRCNLKSLADVSERLASQDITQ
B2: PYR1^CA3: PYR1 triple mutant (H60P, V83F, F159V) (protein)
chain: HHHHHHMPSELTPEERSELKNSIAEFHTYQLDPGSCSSLHAQRIHAPPELVWSIVRRFDKPQTYKPFIKSCSVEQNFEMRVGCTRDVIFISGLPANTSTERLDILDDERRVTGFSIIGGEHRLTNYKSVTTVHRFEKENRIWTVVLESYVVDMPEGNSEDDTRMVADTVVKLNLQKLATVAEAMARNSGDGSGSQVT
B3: PYR1^CA4: PYR1 quadruple mutant (H60P, V83F, F159V, M158I) (protein)
chain: B2 chain with M164I
B4: PYL2^CA4: PYL2 mutant (H65P, V87F, M1641, F165V) (protein)
chain: HHHHHHMSSSPAVKGLTDEEQKTLEPVIKTYHQFEPDPTTCTSLITQRIHAPASVVWPLIRRFDNPERYKPFVKRCRLISGDGDVGSVREVTFISGLPASTSTERLEFVDDDHRVLSFRVVGGEHRLKNYKSVTSVNEFLNQDSGKVYTVVLESYTVDIPEGNTEEDTKIVVDTVVKLNLQKLGVAATSAPMHDDE

Target: T1, ABI2 (Arabidopsis thaliana, UniProt O04719)
T1 construct: Full length ABI1 and ABI2 were cloned into a modified pSUMO vector; made in house; host or cells: E. coli BL21 (DE3) pLysS
T1 sequence (O04719 1-423): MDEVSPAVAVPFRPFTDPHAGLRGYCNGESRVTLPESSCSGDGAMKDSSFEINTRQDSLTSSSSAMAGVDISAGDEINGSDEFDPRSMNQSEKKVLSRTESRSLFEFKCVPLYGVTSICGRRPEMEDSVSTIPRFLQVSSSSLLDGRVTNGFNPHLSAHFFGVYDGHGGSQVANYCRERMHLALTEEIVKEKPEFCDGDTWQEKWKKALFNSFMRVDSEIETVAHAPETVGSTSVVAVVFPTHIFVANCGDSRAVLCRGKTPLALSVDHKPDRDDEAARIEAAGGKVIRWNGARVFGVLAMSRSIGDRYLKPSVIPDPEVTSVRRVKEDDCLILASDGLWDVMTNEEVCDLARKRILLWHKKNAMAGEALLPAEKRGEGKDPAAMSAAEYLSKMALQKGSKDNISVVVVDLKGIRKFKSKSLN
Experiment: In vitro PP2C phosphatase (pNPP) receptor activation assay with ABI2
Type: biochemical
Settings: 600 nM PP2C, 0-4800 nM receptor, no ABA
Procedure: (§1) Full length ABI1 and ABI2 were cloned into a modified pSUMO vector (LifeSensors Inc, USA) vector yielding 6×His-SUMO fusion proteins; GST-HAB1 was expressed and purified as previously described (Park et al., 2009). Mutant receptors were cloned into pET28 yielding 6×His-fusion proteins. […]. The cultures were pre-incubated 2 hours at 30° C. and, for PP2C expression, media was supplemented with 4 mM MnCl2 one hour after inoculation. After pre-incubation, IPTG was added (1 mM) and cells were induced at 15° C. for 16 hours, after which they were collected by centrifugation, resuspended in 5 ml Buffer A (50 mM NaH2PO4, 300 mM NaCl) +10 mM imidazole, pH 8.0 and stored at −80° C. For purification, cells were thawed, sonicated on ice (60 seconds) and a cleared lysate was then applied a 1 ml-bed volume column of Ni-NTA (Qiagen, USA), washed with 20 column volumes of Buffer A+30 mM imidazole and bound protein eluted with 1 ml of Buffer A+250 mM imidazole. For receptors, the elutate was dialyzed against TBS and for PP2Cs, fusion proteins were desalted by passage over a Sephadex G50 column.
(§2) The purified receptors and phosphatases were then used in receptor assays where receptor activation is indicated by inhibition of phosphatase activity, as inferred from initial reaction velocities for PP2C-mediated hydrolysis of the synthetic phosphatase substrate pNPP in reactions containing 600 nM PP2C and either 0, 600, 1200, 2400 or 4800 nM receptor. The receptor assay buffer consisted of 33 mM Tris-OAc, pH 7.9, 66 mM KOAc, 0.1% BSA, 25 mM Mn(OAc)2, 0.1%13-ME and 50 mM pNPP. Immediately after mixing proteins and substrates, reactions were monitored for hydrolysis of pNPP at A405 at ˜2 minutes intervals using a Wallac plate reader. Reaction progressions were plotted, initial velocities calculated and converted to specific activities by comparison to a standard curve for 4-nitrophenol made in the same buffer system. PP2C activity values shown in figures are expressed as %-control phosphatase activity levels, as measured under identical reaction conditions in the absence of receptor protein. The average specific activity level of GST-HAB1, 6×His-SUMO-ABI1 and 6×His-SUMO-ABI2 utilized in our experiments was 4500 (GST-PP2C) or 2500 (SUMO-PP2C) μmol/min/mg, when assayed using the phosphatase substrate pNPP in the absence of PYR1 or other receptors.

Row | Molecule | constitutive receptor activity on ABI2 in the absence of ABA
1 | B1 | active towards multiple PP2Cs
2 | B2 | interact with ABI1 and ABI2
3 | B3 | interact with ABI1 and ABI2
4 | B4 | active towards multiple PP2Cs

Target: T2, ABI1 (Arabidopsis thaliana, UniProt P49597)
T2 construct: Full length ABI1 and ABI2 were cloned into a modified pSUMO vector; made in house; host or cells: E. coli BL21 (DE3) pLysS
T2 sequence (P49597 1-434): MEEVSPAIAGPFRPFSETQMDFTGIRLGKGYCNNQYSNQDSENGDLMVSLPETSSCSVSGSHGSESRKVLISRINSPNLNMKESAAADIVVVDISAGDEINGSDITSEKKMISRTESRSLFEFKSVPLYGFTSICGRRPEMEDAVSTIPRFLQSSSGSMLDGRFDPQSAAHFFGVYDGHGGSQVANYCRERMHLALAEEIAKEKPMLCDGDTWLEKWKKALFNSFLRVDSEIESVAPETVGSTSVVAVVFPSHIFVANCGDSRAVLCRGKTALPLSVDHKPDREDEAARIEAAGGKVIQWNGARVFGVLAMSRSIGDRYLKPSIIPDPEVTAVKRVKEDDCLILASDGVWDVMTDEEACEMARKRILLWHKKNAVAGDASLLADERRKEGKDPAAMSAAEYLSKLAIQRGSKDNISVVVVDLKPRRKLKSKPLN
Experiment: In vitro PP2C phosphatase (pNPP) receptor activation assay with ABI1
Type: biochemical
Settings: 600 nM PP2C, 0-4800 nM receptor, no ABA
Procedure: as §1, §2

Row | Molecule | constitutive receptor activity on ABI1 in the absence of ABA
5 | B1 | active towards multiple PP2Cs
6 | B2 | interact with ABI1 and ABI2
7 | B3 | interact with ABI1 and ABI2
8 | B4 | active towards multiple PP2Cs

Test system: HAB1
Experiment: In vitro PP2C phosphatase (pNPP) receptor activation assay with HAB1
Type: biochemical, Arabidopsis
Settings: 600 nM GST-HAB1, 0-4800 nM receptor, no ABA
Procedure: Recombinant receptor proteins were produced as follows: Coding sequences were cloned into pET28 yielding 6×HIS (SEQ ID NO:173) fusions proteins and transformed into E. coli expression strain BL21. […]. Cells were stored at −80° C. before purification. After thawing, cells were sonicated on ice five times for 30 sec with 30 sec resting intervals. A cleared lysate was obtained after centrifugation at 12,000×g for 10 min and applied to 1 ml of Ni-NTA column (Qiagen) and washed with 20 column volumes of Buffer A containing 30 mM imidazole. Bound protein was eluted with 10 ml of Buffer A with 250 mM imidazole. The elutate was dialyzed against TBS. The purified recombinant proteins were then used together with recombinant phosphatases in receptor assays. In these assays, receptor activity is indicated by inhibition of phosphatase activity, as inferred from initial reaction velocities for GST-HAB1 mediated hydrolysis of the synthetic phosphatase substrate pNPP. Reactions contained 600 nM GST-HAB1 and either 0, 600, 1200, 2400 or 4800 nM 6×His-PYR1 or variants in a reaction buffer consisting of 33 mM Tris-OAc, pH 7.9, 66 mM KOAc, 0.1% BSA, 25 mM Mn(OAc)2, 50 mM pNPP. To infer the level of receptor activation with respect to fully activated wild type receptor, control reactions were also conducted using saturating levels of (+)-ABA (10 μM), and 600 nM wild type PYR1 and HAB1. Immediately after mixing proteins and substrates, reactions were monitored for hydrolysis of pNPP at A405 at ˜10 second intervals over 20 minutes using a Wallac plate reader. Reaction progressions were plotted, initial velocities calculated and converted to specific activities using a standard curve for 4-nitrophenol made in the same buffer system volumes/plate reader used for enzymatic reaction measurements. The values shown are expressed as %-control phosphatase activity levels as measured in the absence of receptor protein. The average specific activity level of GST-HAB1 utilized in our experiments was 4000 μmol/min/mg, when assayed on the phosphatase substrate pNPP in the absence of PYR1 or other receptors, as described using the methods above.
as §1
The purified receptors and phosphatases were then used in receptor assays where receptor activation is indicated by inhibition of phosphatase activity, as inferred from initial reaction velocities for PP2C-mediated hydrolysis of the synthetic phosphatase substrate pNPP in reactions containing 600 nM PP2C and either 0, 600, 1200, 2400 or 4800 nM receptor. The receptor assay buffer consisted of 33 mM Tris-OAc, pH 7.9, 66 mM KOAc, 0.1% BSA, 25 mM Mn(OAc)2, 0.1%13-ME and 50 mM pNPP. Immediately after mixing proteins and substrates, reactions were monitored for hydrolysis of pNPP at A405 at ˜2 minutes intervals using a Wallac plate reader. […]

Row | Molecule | basal receptor activity (inhibition of HAB1 phosphatase activity in the absence of ABA)
9 | B1 | highly activated in the absence of ABA
10 | B2 | dramatically increased basal PYR1 activity
11 | B3 | dramatically increased basal PYR1 activity
12 | B4 | highly activated in the absence of ABA
